Test results: patent US20250144178A1 (KANAPH THERAPEUTICS, published 2025)
Blank lines part the entries; values can stand above or below the binder they belong to.

Key:
[1] = target: T1, recombinant human FAP (human, UniProt Q12884 26-760); experiment: SPR, fusion protein captured by anti-human IgG (Fc) on a CM5 chip, hFAP his as analyte 0.78125-50 nM, 1:1 binding model
T1 construct: Soluble analyte in SPR; The description calls FAP a homodimer; also called rhFAP
T1 sequence (looked up): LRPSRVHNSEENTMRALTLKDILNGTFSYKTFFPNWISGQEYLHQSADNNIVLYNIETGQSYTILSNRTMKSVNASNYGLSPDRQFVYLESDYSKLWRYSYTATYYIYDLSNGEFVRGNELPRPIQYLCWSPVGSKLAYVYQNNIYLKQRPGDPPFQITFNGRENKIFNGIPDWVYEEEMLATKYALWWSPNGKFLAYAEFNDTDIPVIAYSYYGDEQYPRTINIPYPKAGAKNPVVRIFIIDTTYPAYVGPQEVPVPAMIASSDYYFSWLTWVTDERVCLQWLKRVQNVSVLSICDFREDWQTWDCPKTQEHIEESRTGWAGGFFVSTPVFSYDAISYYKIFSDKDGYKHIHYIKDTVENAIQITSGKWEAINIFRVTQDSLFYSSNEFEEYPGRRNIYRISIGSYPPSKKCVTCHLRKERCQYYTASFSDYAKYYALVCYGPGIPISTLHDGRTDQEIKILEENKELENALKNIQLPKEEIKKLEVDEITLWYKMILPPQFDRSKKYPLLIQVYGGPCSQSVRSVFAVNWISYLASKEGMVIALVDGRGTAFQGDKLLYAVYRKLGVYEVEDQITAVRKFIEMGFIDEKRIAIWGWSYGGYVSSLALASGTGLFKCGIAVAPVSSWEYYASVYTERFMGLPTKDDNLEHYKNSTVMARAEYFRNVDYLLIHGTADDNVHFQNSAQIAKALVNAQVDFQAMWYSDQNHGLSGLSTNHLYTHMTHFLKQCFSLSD

[2] = target: T2, human FAP (fibroblast activation protein alpha) overexpressed in HEK293 cells (HEK293-hFAP) (human, UniProt Q12884 1-760); experiment: flow cytometry on HEK293-hFAP cells, detection with anti-human IgG antibody
T2 construct: whole, on cells; also called human FAP-expressing cell line
T2 sequence (looked up): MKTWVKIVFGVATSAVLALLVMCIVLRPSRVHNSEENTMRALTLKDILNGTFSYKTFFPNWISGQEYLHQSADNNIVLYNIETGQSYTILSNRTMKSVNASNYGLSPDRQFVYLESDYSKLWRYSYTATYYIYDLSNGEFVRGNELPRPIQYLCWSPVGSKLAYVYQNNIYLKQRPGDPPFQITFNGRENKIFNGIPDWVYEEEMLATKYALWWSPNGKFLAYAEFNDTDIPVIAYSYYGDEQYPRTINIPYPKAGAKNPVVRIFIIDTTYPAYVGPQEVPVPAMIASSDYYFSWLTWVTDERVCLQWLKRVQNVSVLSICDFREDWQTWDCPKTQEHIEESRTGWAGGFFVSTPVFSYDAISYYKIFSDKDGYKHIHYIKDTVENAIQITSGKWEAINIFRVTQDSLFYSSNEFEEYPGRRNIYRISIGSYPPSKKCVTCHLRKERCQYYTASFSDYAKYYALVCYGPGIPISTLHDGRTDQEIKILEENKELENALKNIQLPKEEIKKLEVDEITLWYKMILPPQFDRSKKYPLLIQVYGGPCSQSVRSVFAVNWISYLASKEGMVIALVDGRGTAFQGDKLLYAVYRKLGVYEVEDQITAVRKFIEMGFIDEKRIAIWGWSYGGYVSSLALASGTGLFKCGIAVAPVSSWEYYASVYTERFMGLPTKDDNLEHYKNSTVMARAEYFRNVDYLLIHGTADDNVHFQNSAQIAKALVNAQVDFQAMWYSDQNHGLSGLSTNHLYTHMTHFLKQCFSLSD
Protocol: (§1) Specifically, the cell line was prepared by suspending in a FACS buffer solution at 1×10⁵ cells/100 μl, and treated with 1 μg each of T1.12, T1.01, T1.02 and T1.03. The cells were washed twice with a FACS buffer solution. The cells were stained with an anti-human IgG antibody (Biolegend). The negative control was stained only with an anti-human IgG antibody (Biolegend). The expression rates of the stained cells were measured using BD LSR and analyzed using a FlowJo software.

[3] = target: T2, human FAP (fibroblast activation …); experiment: flow cytometry on HEK293-hFAP cells, 1 µg protein per 1x10^5 cells, anti-human IgG detection
Protocol: as §1

[4] = target: T3, IL-12 receptor beta 1-biotin (recombinant human IL-12 receptor protein) (human, UniProt P42701 24-545, limits assumed, biotin (site not stated)); experiment: ELISA, fusion protein coated in serial dilution, 1 nM IL-12Rβ1-biotin, streptavidin-HRP, OD at 450 nm
T3 construct: Bought reagent; also called IL-12Rβ1-Biotin
Protocol: (§2) (ii) The wells were washed with a wash solution, and then blocking was performed for 1 hour with 1% BSA (Bovine serum albumin, Sigma) solution.
(§3) (iii) The wells were washed with a wash solution, and then treated with 1 nM IL-12 receptor beta 1-biotin (IL-12Rβ1-Biotin; Acrobiosystems, Newark, USA) for 2 hours.
(§4) (iv) The wells were washed with a wash solution, and then treated with streptavidin-HRP for 20 minutes.

[5] = target: IL-12 receptor of human T cells (human, UniProt P42701 24-662; Q99665 24-862); experiment: cell-based or functional assay
Sequence of IL-12 receptor of human T cells (Q99665 24-862, chain 2 of 2, other chains not shown): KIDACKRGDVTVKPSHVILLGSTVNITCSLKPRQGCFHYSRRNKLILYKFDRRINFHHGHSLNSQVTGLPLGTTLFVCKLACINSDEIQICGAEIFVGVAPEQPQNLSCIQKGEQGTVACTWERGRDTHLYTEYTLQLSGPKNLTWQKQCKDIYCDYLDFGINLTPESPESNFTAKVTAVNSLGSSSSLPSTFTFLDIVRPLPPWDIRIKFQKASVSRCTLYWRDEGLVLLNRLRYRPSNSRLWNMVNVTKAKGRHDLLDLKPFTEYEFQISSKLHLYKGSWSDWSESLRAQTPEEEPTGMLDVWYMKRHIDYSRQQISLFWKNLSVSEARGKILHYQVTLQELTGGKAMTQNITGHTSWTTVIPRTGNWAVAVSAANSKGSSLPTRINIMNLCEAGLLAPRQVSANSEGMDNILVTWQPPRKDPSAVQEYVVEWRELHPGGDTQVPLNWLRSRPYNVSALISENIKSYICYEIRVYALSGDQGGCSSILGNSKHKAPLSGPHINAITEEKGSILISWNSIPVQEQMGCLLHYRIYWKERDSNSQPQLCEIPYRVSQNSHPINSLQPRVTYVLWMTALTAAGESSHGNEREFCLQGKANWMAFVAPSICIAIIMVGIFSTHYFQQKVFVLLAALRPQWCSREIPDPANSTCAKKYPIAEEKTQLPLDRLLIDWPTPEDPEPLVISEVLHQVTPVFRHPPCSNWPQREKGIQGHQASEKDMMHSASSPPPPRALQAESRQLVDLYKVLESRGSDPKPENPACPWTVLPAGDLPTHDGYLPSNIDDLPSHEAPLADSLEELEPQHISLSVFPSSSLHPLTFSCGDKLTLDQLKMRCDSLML

[6] = target: T3, IL-12 receptor beta 1-biotin …; experiment: ELISA, protein coated in serial dilution, 1 nM IL-12Rβ1-biotin, streptavidin-HRP, OD at 450 nm
Protocol: as §2, §3, §4

[7] = target: T1, recombinant human FAP; experiment: SPR, fusion protein captured by anti-human IgG (Fc) on a CM5 chip, human FAP as analyte 1.5625-200 nM, 1:1 binding model
Protocol: Specifically, the surface of the CM5 chip was activated with a 1:1 mixture of […] NHS (N-hydroxysuccinimide) and […] EDC (1-Ethyl-3-(3-dimethylaminopropyl) carbodiimide), and 25 μg/ml of anti-human IgG (Fc) antibody was immobilized for 400 seconds at a rate of 10 μl/min. The remaining active ester groups were blocked with 1 M ethanolamine. T1.01, T1.02 and T1.03 were diluted to 2 μg/ml and reacted on the CM5 chip immobilized with the anti-human IgG (Fc) antibody. The recombinant human FAP was diluted to 200 nM in 1×HBS-EP+buffer solution and diluted by serial dilution. The diluted recombinant human FAP was reacted at a rate of 30 μl/min. The association and dissociation times were 180 seconds and 400 seconds, respectively. After the dissociation, stabilization was performed for 60 seconds, and then a regeneration was performed for 30 seconds with a 10 mM glycine pH 1.5 solution at a rate of 30 μl/min.

percent of cells in the positive gate (hFAP-PE) [2]: 99.3% | percent of cells bound [3]: ≥ 99% | binding result [6]: no binding (tested: 10^5 pM)
B2: T1.12 (anti-hu FAP/null, hu IgG1 DANG) (antibody)
heavy: QVQLVQSGAEVKKPGASVKVSCKTSRYTFTEYTIHWVRQAPGQRLEWIGGINPNNGIPNYNQKFKGRVTITVDTSASTAYMELSSLRSEDTAVYYCARRRIAYGYDEGHAMDYWGQGTLVTVSSASTKGPSVFPLAPSSKSTSGGTAALGCLVKDYFPEPVTVSWNSGALTSGVHTFPAVLQSSGLYSLSSVVTVPSSSLGTQTYICNVNHKPSNTKVDKKVEPKSCDKTHTCPPCPAPELLGGPSVFLFPPKPKDTLMISRTPEVTCVVVAVSHEDPEVKFNWYVDGVEVHNAKTKPREEQYGSTYRVVSVLTVLHQDWLNGKEYKCKVSNKALPAPIEKTISKAKGQPREPQVYTLPPSRDELTKNQVSLWCLVKGFYPSDIAVEWESNGQPENNYKTTPPVLDSDGSFFLYSKLTVDKSRWQQGNVFSCSVMHEALHNHYTQKSLSLSPGK
light: not shown
chain: not shown
notes: One-armed anti-FAP antibody without IL-12; used as the control for IL-12 activity

percent of cells in the positive gate (hFAP-PE) [2]: 99.3% | percent of cells bound [3]: ≥ 99% | EC50 (read off the curve) [4]: ~20 nM | fold change of the p-STAT4 EC50 with low molecular weight heparin against without, activated human T cells [5]: 4 times | half maximal effective concentration (EC50) of p-STAT4 (Tyr693), AlphaLISA, activated human T cells [5]: 0.147 nM | Kd [7]: 1.3 nM | koff [7]: 0.000124 s⁻¹ | kon [7]: 94900 M⁻¹ s⁻¹
B4: T1.03 (anti-hu FAP/hu IL-12 mut2, hu IgG1 DANG) (bispecific antibody)
heavy: B2 heavy
light: not shown
chain: not shown
notes: Knob-in-hole heterodimer

Second part, the binder before the results:

B1: T1.02 (anti-hu FAP/hu IL-12 mut1, hu IgG1 DANG) (bispecific antibody)
heavy: B2 heavy
light: not shown
chain: not shown
notes: Knob-in-hole heterodimer
Kd [1]: 0.595 nM | koff [1]: 0.000139 s⁻¹ | kon [1]: 235000 M⁻¹ s⁻¹ | percent of cells in the positive gate (hFAP-PE) [2]: 99.8% | percent of cells bound [3]: ≥ 99% | EC50 (read off the curve) [4]: ~20 nM | fold change of the p-STAT4 EC50 with low molecular weight heparin against without, activated human T cells [5]: 5.5 times | half maximal effective concentration (EC50) of p-STAT4 (Tyr693), AlphaLISA, activated human T cells [5]: 0.0565 nM

B3: T1.01 (anti-hu FAP/hu IL-12, hu IgG1 DANG) (bispecific antibody)
heavy: B2 heavy
light: not shown
chain: not shown
notes: Knob-in-hole heterodimer: one anti-FAP Fab arm and one single-chain human IL-12 (p40-linker-p35) Fc arm
Kd [1]: 0.588 nM | koff [1]: 0.000152 s⁻¹ | kon [1]: 258000 M⁻¹ s⁻¹ | percent of cells in the positive gate (hFAP-PE) [2]: 99.8% | percent of cells bound [3]: ≥ 99% | EC50 (read off the curve) [4]: ~20 nM | fold change of the p-STAT4 EC50 with low molecular weight heparin against without, activated human T cells [5]: 9.4 times | half maximal effective concentration (EC50) of p-STAT4 (Tyr693), AlphaLISA, activated human T cells [5]: 0.0145 nM
